Kd data for 2 molecules are collected here from article PMC2943896, “Additional Serine/Threonine Phosphorylation Reduces Binding Affinity but Preserves Interface Topography of Substrate Proteins to the c-Cbl TKB Domain” (PLoS ONE, 2010).

Where no end group is shown, it is not given here. [ ]: non-standard residue; d: D form. pY = N[C@@H](Cc1ccc(OP(=O)(O)O)cc1)C(=O)O; pT = C[C@@H](OP(=O)(O)O)[C@H](N)C(=O)O

The target in the test is T1, c-Cbl TKB domain (UniProt P22681 25-351).
T1 construct: these are not the construct limits; source: cloning, expression and purification as described previously [14]; purified
T1 sequence: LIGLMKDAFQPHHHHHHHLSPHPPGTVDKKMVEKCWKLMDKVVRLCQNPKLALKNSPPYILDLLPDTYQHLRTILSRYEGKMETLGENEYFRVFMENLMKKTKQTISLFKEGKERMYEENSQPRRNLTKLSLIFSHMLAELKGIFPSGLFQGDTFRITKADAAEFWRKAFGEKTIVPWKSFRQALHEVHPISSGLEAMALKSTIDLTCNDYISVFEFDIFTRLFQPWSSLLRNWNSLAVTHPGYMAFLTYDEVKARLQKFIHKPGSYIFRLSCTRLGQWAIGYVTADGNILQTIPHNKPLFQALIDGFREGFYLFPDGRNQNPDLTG
Particulars: both partners purified.

B1: pTyr55/pThr56 Spry2 peptide (peptide)
peptide: IRNTNE[pY][pT]EGPT
notes: Sprouty2 (Spry2), human; also called ppSpry2; pYpT-Spry2; source: synthetic peptide, bought: GL Biochem
As to B1, the Kd (in general, the equilibrium constant for the complex coming apart) came out at 3830 nM.
Turning to IRNTNE[pY]TEGPT (also called pSpry2; pSprouty2) [Tyr55 phosphorylated Spry2 peptide], the Kd was found to be 310 nM.
